Measured values as given in US7947876B2 (Nippon Paper Industries Co., Ltd., priority 2004, dated 2011).
Ends that are not written are not given here.

System: mouse islet
Assay: Thermal stability, activity measured by cAMP generation using mouse islet
Assay type: cell-based
Conditions: 15 min at 100° C.; for stability for thermal treatment (activity by cAMP generation): 10 μg/ml in 0.2% BSA solution, versus non-thermal treated control
Procedure: Further, trypsin treatment was performed, and a monomer GLP-1 derivative was obtained. […] To these thermal treated substances, non-thermal treated substances were prepared similarly as a control. Then, with respect to these substances, the activity was measured by cAMP generation using mouse islet. […] On the other hand, as the synthetic peptide was heat-stable, the 5 linked peptide expressed in rice was estimated to have changed by thermal denaturation to a tertiary structure which would not be easily digested by trypsin.

Row | Substance | activity lower than that of non-thermally treated (cAMP generation) (rice in distilled water, then extraction and trypsin treatment, FIG. 8) | stability for thermal treatment (activity by cAMP generation)
1 | [Ser^8,Gln^26, Asn^34]-GLP-1 (HDEFERHSEGTFTSDVSSYLEGQAAQEFIAWLVNGRG; Glucagon-like peptide 1; UniProt P01275 92-128, looked up, variant A8S K26Q K34N) | about 33% | 
2 | synthetic native GLP-1: native GLP-1 obtained by synthesis [reference compound] |  | stable
3 | [Ser^8,Gln^26, Asn^34]-GLP-1 (HSEGTFTSDVSSYLEGQAAQEFIAWLVNGR; ends and bridges not checked) [synthetic GLP-1 derivative] |  | stable
